Experimental findings from the DeepSol protein solubility set are described below.

The nature of the series: soluble on expression in E. coli; label from the status in PepcDB or PDB records.
For “KLNRAIGVIDSGVGGLTVAKELIRQLPKERIIYLGDTARCPYGPRSREEVRQFTWEMTEHLLDLNIKMLVIACNTATAVVLEEMQKQLPIPVVGVIHPGSRTALKVTNTYHVGIIGTIGTVKSGAYEEALKSINNRVMVESLACPPFVELVESGNFESEMAYEVVRETLQPLKNTDIDTLILGCTHYPILGPVIKQVMGDKVQLISSGDETAREVSTILYHSKMLNEGEEQSDHLFLTTGKIGLFKEIASKWFGQPIENVKHIHLEK”, the “soluble on expression in E. coli” value is reported as “soluble”.

Consider “MTRPPLPPFTAETAAEKVRLAENGWNNRSADVVTPAYSDDSRWRNRAEFVTGHDDIHAFLTRKWDKELDYRLIKELWAWSGNRIAVRYAYEWHDDSGNWFRSYGNENWEFDEDGRMSARHTSLNDLPITEDERLFHWPLGPRPDGHPGLTDLGLLEHHHHHH”, for which the “soluble on expression in E. coli” value is listed as “not soluble”.

As for “HEHPTSAGGDGGAGTGAVGTHDGSAAAAAAAAALPSISGARGHAGPEGGHDNDMGGMDASGGGGGGGYGRLPGLAAQSSMASVDGDEASLPPIANLSLGKANMTGSTVGGAAHASTRRSTLNTYYEPGAGGGGGTGGAGGGGGGAGPGPAGYGKVAKAAAVGGAGSVAGGGGVVGGAGVGGGGAVGSGTVGRRQSVGVVVGKYGSVNKQASQGHGGGGPGVAGAAGMAVTGGHAGGGVGGGGGGAVGVGGVGVNKYKANVGKTNSKYISPYSLRQLAG”, the “soluble on expression in E. coli” value is “not soluble”.

In the case of “DRKAVLNAAEQHFSGWKELYLCLVDRDTQGGLVVETGGPLTFSEAERAAADWAWQHDQPAGSGTGTLPSGRWWWWPITAEEGPLALLGVCAREGQSFTDQHRRLLAALTQPLAQALARAQLAQELEAARLHGETEQLRSALLASVSHDLRTP”, the “soluble on expression in E. coli” value is “not soluble”.

“MGSDKIHHHHHHMDVIKQIQQAIVYIEDRLLEPFNLQELSDYVGLSPYHLDQSFKMIVGLSPEAYARARKMTLAANDVINGATRLVDIAKKYHYANSNDFANDFSDFHGVSPIQASTKKDELQIQERLYIKLSTTERAPYPYRLEETDDISLVGYARFIDTKYLSHPFNVPDFLEDLLIDGKIKELRRYNDVSPFELFVISCPLENGLEIFVGVPSERYPAHLESRFLPGKHCAKFNLQGEIDYATNEAWYYIESSLQLTLPYERNDLYVEVYPLDISFNDPFTKIQLWIPVKQSPYDED”: the “soluble on expression in E. coli” value is recorded as “not soluble”.

“MGSDKIHHHHHHMFIKLNKGLDLPISGEPEQCVYAATAVRHIAVAGVDYIDLKPTMKVTEGDRVRLGQPLFEYKKLPGVVFTAPGAGRIVAINRGTRRILLSVVLQLDEQEDEETFIKYAPDELSNLADEQVKENLLISGLWTTLRTRPYSKVPDPATRPAAIFITAIDSNPLAADPVPIITAEMESFNHGLRILSRLTDGPLWVCQSPQAKLSLPEDLPQLQQARFAGPHPAGLPGTHIHFLQPVSAYKTVWYLNYQEVIAIGKLFVTGRLWTERIVALGGPGVKKPRLLRTRLGASLEELLAGELVESMDKRVISGSVWSGRKAVDELAFLGRHHLQVTVIGEKSEREFLGWLNPGGNKYSKLNVLFSSFFRKKRKFEFTASQQGSPRAMIPIDTFEEVMPLDILPAQLLRALLVMDTDMAQKLGCLELDEEDLALCSFICVGKHDYGVILRENLRQIEKEG”: the “soluble on expression in E. coli” value is listed as “not soluble”.

In the case of “MAKKPSKKKVKRQVASGRAYIHASYNNTIVTITDPDGNPITWSSGGVIGYKGSRKGTPYAAQLAALDAAKKAMAYGMQSVDVIVRGTGAGREQAIRALQASGLQVKSIVDDTPVPHNGCRPKKKFRKAS”, the “soluble on expression in E. coli” value is on record as “soluble”.

Take “SLRDSFHFKTYRKRRICPTMTLVLDLDETLIYCTKKRKYHYQKEVDVLINGKYLPLYVCKRPYIDLFFSSLYPFYEIIIFTTAIKSYADTVLNIIDVDHYIDKKFYREDCYEMNEKLYIKNLTNIKKELSKIILIDDSNISGFQYPDNFFPIKKWQGDLNDNELLHLIPFFLNLRKLKDIRSLCSFRLISQKDVSKLLCTSS”: the “soluble on expression in E. coli” value is “not soluble”.

Consider “MDDVYRAFDSVGNILNFRIVEKEQKGFWVSTKIKTVVFDSADMSSDDLFLKCLQSSYKAYFETEPAGLDKRQLMKTLIQKCGFSC”, for which the “soluble on expression in E. coli” value is given as “not soluble”.
